Test results published in patent KR20170011863A.

Substrate: B형 간염 바이러스의 표면 항원 (Hepatitis B surface antigen; HBsAg) (Hepatitis B virus)
Assay: cell-based or functional assay

EC50 (effective concentration) of inhibition of HBV infection of HepG2-NTCP cells: 0.015 µg/mL | EC50 (effective concentration) of inhibition of HBV infection of HepG2-NTCP cells, converted to molar concentration (150 kDa): 100 pM
B1: GC1102 (HBsAg에 대한 인간 HBV 항체) (antibody, V domains shown)
VH: QVKLLESGGGLVKPGGSLRLSCSASGFSLTKYKMTWVRQAPGKGLEWVSSISSTSRDIDYADSVKGRFTISRDNAKNSLFLQMSSLRVDDTAVYYCTRDGWLWGWDVRSNYYYNALDVWGQGTTVTVSS
VL: ELVMTQSPSSLSASVGDRVTITCRASQGIYNSIAWYQQKPGKAPKLLLYSTSTLLSGVPSRFSGSGSGTDYTLTITNLQPEDFATYYCQQYFVTPETFGQGTKVEIKR
